Columns and labels:
[1] = target: T1, Ret receptor tyrosine kinase C634Y (RetC634Y) on PC12 MEN 2A cells (Homo sapiens, UniProt P07949 P07949:29-1114, C634Y); assay: whole PC12 MEN 2A cells, RPMI, 37C; 102 ± 25 x1000 targets/cell; competes with D4 (p188); conditions: tags: stably transfected in rat PC12 cells; constitutive homodimer; chain copies: 2 (inferred); label: 5'-32P
Procedure: (§1) The binding of the various aptamers (or of the initial pool, as control) to the PC12 MEN 2A cells is carried out in 24-well plates (experiments carried out in triplicate), with 5′-³²P-labeled RNA. 10⁵ cells per well are incubated with various concentrations of aptamers in 200 μl of RPMI for 10 min at 37° C. in the presence of 100 μg/ml of polyinosine, as non-specific competitor. After several washes, the bound sequences are recovered in 350 μl of 0.6% SDS and the amount of radioactivity recovered is related to the number of cells by measuring the protein content in each well.

[2] = target: T1, Ret receptor tyrosine kinase C634Y …; assay: whole PC12 MEN 2A cells, RPMI, 37C, 10 min, polyinosine; 110 ± 47 x1000 targets/cell; no binding to parental PC12, NBTII or HeLa cells lacking Ret; conditions: tags: stably transfected in rat PC12 cells; constitutive homodimer; chain copies: 2 (inferred); stem-loop with internal loops (predicted)
Procedure: as §1

[3] = target: T1, Ret receptor tyrosine kinase C634Y …; assay: whole PC12 MEN 2A cells, RPMI, 37C, 10 min, polyinosine competitor; target on cell not directly proven; 102 ± 58 x1000 targets/cell; conditions: tags: stably transfected in rat PC12 cells; constitutive homodimer; chain copies: 2 (inferred); label: 5'-32P; stem-loop with internal loops (predicted)
Procedure: as §1

T1 sequence (P07949 29-1114 C634Y, one chain of several): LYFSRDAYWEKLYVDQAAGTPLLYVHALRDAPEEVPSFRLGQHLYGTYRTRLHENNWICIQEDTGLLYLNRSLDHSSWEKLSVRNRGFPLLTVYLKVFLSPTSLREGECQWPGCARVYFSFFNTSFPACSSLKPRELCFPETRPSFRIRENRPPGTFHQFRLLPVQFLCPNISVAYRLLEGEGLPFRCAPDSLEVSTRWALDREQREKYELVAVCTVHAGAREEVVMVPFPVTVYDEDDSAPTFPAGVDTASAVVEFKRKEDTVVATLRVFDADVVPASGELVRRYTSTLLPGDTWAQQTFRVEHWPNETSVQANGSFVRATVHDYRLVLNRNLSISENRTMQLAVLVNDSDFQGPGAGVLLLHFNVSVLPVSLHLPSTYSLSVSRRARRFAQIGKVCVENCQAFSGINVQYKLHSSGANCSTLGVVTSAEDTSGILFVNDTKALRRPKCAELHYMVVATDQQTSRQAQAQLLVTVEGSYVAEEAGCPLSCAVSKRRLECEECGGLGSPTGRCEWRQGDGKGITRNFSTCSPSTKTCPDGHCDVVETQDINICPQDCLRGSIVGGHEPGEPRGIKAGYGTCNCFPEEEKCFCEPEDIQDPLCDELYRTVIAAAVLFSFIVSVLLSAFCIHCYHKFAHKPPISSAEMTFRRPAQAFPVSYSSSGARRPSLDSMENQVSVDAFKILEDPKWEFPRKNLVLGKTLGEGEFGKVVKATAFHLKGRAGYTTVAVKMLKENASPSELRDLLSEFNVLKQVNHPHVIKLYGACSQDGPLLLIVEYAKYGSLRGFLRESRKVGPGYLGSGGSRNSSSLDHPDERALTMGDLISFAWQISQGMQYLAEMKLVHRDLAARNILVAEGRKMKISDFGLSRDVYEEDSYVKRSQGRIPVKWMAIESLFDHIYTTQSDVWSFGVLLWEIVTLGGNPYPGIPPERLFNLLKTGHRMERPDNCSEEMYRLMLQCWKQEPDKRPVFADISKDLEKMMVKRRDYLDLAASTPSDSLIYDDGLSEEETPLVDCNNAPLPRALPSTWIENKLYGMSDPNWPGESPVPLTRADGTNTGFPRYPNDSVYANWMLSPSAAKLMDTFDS

B1: D12 (ssRNA)
RNA: GGGAGACAAGAAUAAACGCUCAAGGGCUUCAUAAGCUACACCGGCCAACGCAGAAAUGCCUUAAGCCCGAGUUAACGACAGGAGGCUCACAACAGGA
modifications: 2'-F pyrimidines (all C and U)
B1 was tested, and the Kd [1] was 67 nM.

B2: D4 (ssRNA)
RNA: GGGAGACAAGAAUAAACGCUCAAGCGCGGGAAUAGUAUGGAAGGAUACGUAUACCGUGCAAUCCAGGGCAACGAACGACAGGAGGCUCACAACAGGA
modifications: 2'-F pyrimidines (all C and U)
B2 showed a Kd [2] of 35 nM.

B3: D24 (ssRNA)
RNA: GGGAGACAAGAAUAAACGCUCAAGCGGUAUGUAGGGAAUAGCACUUUUUUUGCGUAUACCUACACCGCAGCGAACGACAGGAGGCUCACAACAGGA
modifications: 2'-F pyrimidines (all C and U)
In the case of B3, the Kd [3] is reported as 32 nM.

— US20080227735, “Aptamers Selected From Live Tumor Cells and the Use Thereof” (COMMISSARIAT A L'ENERGIE ATOMIQUE, published 2008)
